Source: patent US20120308554A1, “VEGF-D/VEGFR2/3-MEDIATED REGULATION OF DENDRITES” (UNIVERSITAT HEIDELBERG, priority 2011, published 2012)

What was measured:
Format in all cases: cell-based, mice
VEGFD = experiment: qRT-PCR analysis of VEGFD expression in hippocampal neurons; conditions: hippocampal neurons infected with rAAV
Experimental: Total RNA was isolated at DIV10 to DIV13 from hippocampal primary neuron cultures or isolated brain tissues with Rneasy Mini Kit (Qiagen, Hilden, Germany) including an optional Dnase I treatment at room temperature for 15 min according to manufacturer's instructions (Qiagen). 1.2 μg of extracted RNA was reverse transcribed into first strand cDNA using High Capacity cDNA Reverse Transcription kit (Applied Biosystems, Foster City, Calif.).
Quantitative reverse transcriptase PCR (qRT-PCR) was done on an ABI7300 thermal cycler using Universal qRT-PCR master mix with TaqMan Gene Expression Assays for the indicated genes (Applied Biosystems). The following TaqMan Gene Expression Assays were used in this study: Gusb (Mm00446953_m1), cFos (Mm00487425_m1), VEGFD (Mm00438965_m1), VEGFC (Mm01202432_m1), VEGF (Mm01281449_m1), VEGFR3 (Mm01292618_m1), beta-actin (Mm00607939_s1), beta-2 microglobulin (Mm00437762_m1), CBP (Mm01342435_m1), p38 MAPK alpha (Mm00442497_m1), p38 MAPK beta (Mm00440955_m1). Expression of target genes was normalized against the expression of Gusb as endogenous control gene. Data were derived from at least 5 independent experiments.

ERK1/2 = experiment: Immunoblot analysis with phospho-specific antibodies, ERK1/2; conditions: rVEGFD treatment for various lengths of time
Experimental: (§1) A: Immunoblot analysis using phosphor-specific antibodies of hippocampal neurons with or without rVEGFD treatment for the indicated times. Tubulin was used as loading control.
(§2) B: Quantification of the experiment shown in A. rVEGFD treatment causes a significant increase of CREB, ERK1/2 and p38 MAP kinase phosphorylation. All values are expressed as percentage of untreated controls (n=5).
(§3) Next, the signaling mechanisms through which VEGFD controls dendrite architecture were determined. Cell lysates from hippocampal neurons treated with rVEGFD for various lengths of time were subjected to immunoblot analysis using a large panel of antibodies that are specific for the phosphorylated (i.e. activated) forms of signaling molecules (FIG. 9). […] Therefore, it was determined whether p38 MAPK mediates the effects of VEGFD on dendrite geometry. […] Because SB203580 inhibits the alpha and beta isoforms of p38 MAPK, the role of p38 MAPK in VEGFD-mediated dendritic arborization by RNAi was further investigated. Two pAAVs, shp38α and shp38β, that contain expression cassettes for shRNAs specific for the alpha and the beta isoform, respectively, of p38 MAPK, were generated.

CREB = experiment: Immunoblot analysis with phospho-specific antibodies, CREB; conditions: rVEGFD treatment for various lengths of time
Experimental: as §1, §2, §3

hippocampal neurons = experiment: Morphometric analyses (total dendritic length, Sholl analysis, spine density) of cultured hippocampal neurons
Experimental: Hippocampal neurons from newborn C57BL/6 mice were cultured as known in the art. Experiments were done after a culturing period of 10 to 14 days in vitro (DIV). DNA transfection was done on DIV8 using Lipofectamine 2000 (Invitrogen, San Diego, Calif.). For the studies on dendrite morphology, neurons were analyzed 4-5 days after transfection.
For 3D Sholl Analysis, total dendritic length and spine morphology were calculated using Object-Image freeware software with a specific set of macros (written by Dr. E. Ruthazer, McGill University, Quebec). Briefly, a z-Stack acquisition was imported, calibrated in Object-Image and manually traced. Total dendritic length was then computed. For Sholl analysis, the shell interval was set at 5 μm. All analyses were performed blind. In all in vitro experiments, for each condition, a minimum of 12 neurons from three independent preparations was analyzed. For the Golgi staining quantifications of 20 neurons for each condition from 4 different injected animals per viral construct were traced and analyzed.
Hippocampal neurons were fixed with 4% paraformaldehyde at room temperature for 20 min. For immunostaining, primary and secondary antibodies were applied in GDB buffer (30 mM phosphate buffer [pH7.4] containing 0.2% gelatin, 0.5% Triton X-100, and 0.9 M NaCl). For the morphometric analyses, fluorescence images were acquired using a confocal laser-scanning microscope TCS SP2 (Leica, Mannheim, Germany) equipped with an inverted fluorescence microscope DM IRE2 (Leica) and Leica confocal scan software. All images were obtained with sequential acquisition setting at a resolution of 1024×1024 pixels. Each image was a z series projection of images taken at 1 μm intervals.

p38 MAP kinase = experiment: Immunoblot analysis with phospho-specific antibodies, p38 MAP kinase; conditions: rVEGFD treatment for various lengths of time
Experimental: as §1, §2, §3

hippocampal cultures = experiment: MEA recordings of spontaneous network activity; conditions: rAAV-shVEGFD infected cultures, 100 ng/ml rVEGFD added to media
Experimental: MEA recordings were done as known in the art. From DIV7 to DIV13, recordings of spontaneous network activity were acquired for 5 min once per day.

B1: CaMKIVK75E: dominant negative mutant of CaMKIV (protein, UniProt P08414 1-469, looked up, variant K75E)
Calcium/calmodulin-dependent …: MLKVTVPSCPSSPCSSVTASTENLVPDYWIDGSNRDPLGDFFEVESELGRGATSIVYRCKQKGTQKPYALKVLKETVDKKIVRTEIGVLLRLSHPNIIKLKEIFETPTEISLVLELVTGGELFDRIVEKGYYSERDARDAVKQILEAVAYLHENGIVHRDLKPENLLYATPAPDAPLKIADFGLSKIVEHQVLMKTVCGTPGYCAPEILRGCAYGPEVDMWSVGIITYILLCGFEPFYDERGDQFMFRRILNCEYYFISPWWDEVSLNAKDLVKKLIVLDPKKRLTTFQALQHPWVTGKAANFVHMDTAQKKLQEFNARRKLKAAVKAVVASSRLGSASSSHTSIQENHKASSDPPSTQDAKDSTDLLGKKMQEEDQEEDQVEAEASADEMRKLQSEEVEKDAGVKEEETSSMVPQDPEDELETDDPEMKRDSEEKLKSVEEEMDPMTEEEAPDAGLGVPQQDAIQPEY
VEGFD
  VEGFD mRNA levels: significantly lower

B2: rVEGFD: recombinant mouse VEGFD (R&D Systems) (protein)
chain: FAATFYDTETLKVIDEEWQRTQCSPRETCVEVASELGKTTNTFFKPPCVNVFRCGGCCNEEGVMCMNTSTSYISKQLFEISVPLTSVPELVPVKIANHTGCKCLPTGPRHPYSIIRR
ERK1/2
  ERK1/2 phosphorylation: significant but moderate
CREB
  CREB phosphorylation: significant but moderate
Hippocampal neurons; neurons transfected with pAAV-shSCR and pAAV-emptymC, rVEGFD 100 ng/ml 3 days
  dendrite length or complexity: did not affect dendrite length or complexity
Hippocampal neurons; neurons without nuclear calcium signaling blockade
  neuronal morphology: no detectable effect on neuronal morphology
Hippocampal neurons; pAAV-shVEGFD transfected neurons, rVEGFD 100 ng/ml 3 days or co-transfection
  effect on reduction of dendrite length and complexity caused by shVEGFD: reversed
Hippocampal neurons; rVEGFD 100 ng/ml 3 days or VEGFD-HA expression
  restoration of spine density in CaMBP4 or CaMKIVK75E expressing neurons: failed to restore normal spine density
Hippocampal neurons; recombinant factors 100 ng/ml for 3 days, or VEGFD-HA expression
  rescue of reduction in dendrite length and complexity caused by CaMBP4 or CaMKIVK75E: rescued the reduction in dendrite length and complexity
p38 MAP kinase
  activation of p38 MAPK: very robust
Hippocampal cultures
  rescue of decreased spike frequency: partly rescued
